Some targets named below: PKGδ(h) (human); MuSK(h) (human) (UniProt O15146); MLCK(h) (human); SRPK1(h) (human) (UniProt Q96SB4); EGFR(L858R)(h) (human) (UniProt P00533); NEK7(h) (human) (UniProt Q8TDX7); MINK(h) (human) (UniProt Q8N4C8); CSK(h) (human) (UniProt P41240); MRCKβ(h) (human) (UniProt Q9Y5S2); Rsk1(h) (human) (UniProt Q15418); PKCβI(h) (human) (UniProt P05771); Abl(M351T)(h) (human) (UniProt P00519); IRR(h) (human) (UniProt P14616); CDK5/p35(h) (human) (UniProt Q00535); PTK5(h) (human) (UniProt P42685); c-RAF(h) (human) (UniProt P04049); CDK2/cyclinA(h) (human) (UniProt P24941); DYRK2(h) (human) (UniProt Q92630); mTOR(h) (human) (UniProt P42345); Hck(h) (human) (UniProt P08631).

What all share (assay): cell-based or functional assay
Another assay concerns the target T1, SGK2(h) (human) (UniProt Q9HBY8).
T1 sequence (looked up): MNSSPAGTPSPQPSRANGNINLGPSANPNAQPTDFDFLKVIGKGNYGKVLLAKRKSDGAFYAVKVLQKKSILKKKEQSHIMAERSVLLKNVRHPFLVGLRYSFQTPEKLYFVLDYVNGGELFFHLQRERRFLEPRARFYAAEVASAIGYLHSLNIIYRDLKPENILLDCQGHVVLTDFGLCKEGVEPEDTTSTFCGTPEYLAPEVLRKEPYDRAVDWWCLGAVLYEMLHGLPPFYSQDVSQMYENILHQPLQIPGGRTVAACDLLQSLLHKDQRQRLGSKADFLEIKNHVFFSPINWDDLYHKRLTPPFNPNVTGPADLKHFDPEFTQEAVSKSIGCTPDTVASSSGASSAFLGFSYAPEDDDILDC

For a further assay, the target named is T2, SAPK3(h) (human) (UniProt P53778).
T2 sequence (looked up): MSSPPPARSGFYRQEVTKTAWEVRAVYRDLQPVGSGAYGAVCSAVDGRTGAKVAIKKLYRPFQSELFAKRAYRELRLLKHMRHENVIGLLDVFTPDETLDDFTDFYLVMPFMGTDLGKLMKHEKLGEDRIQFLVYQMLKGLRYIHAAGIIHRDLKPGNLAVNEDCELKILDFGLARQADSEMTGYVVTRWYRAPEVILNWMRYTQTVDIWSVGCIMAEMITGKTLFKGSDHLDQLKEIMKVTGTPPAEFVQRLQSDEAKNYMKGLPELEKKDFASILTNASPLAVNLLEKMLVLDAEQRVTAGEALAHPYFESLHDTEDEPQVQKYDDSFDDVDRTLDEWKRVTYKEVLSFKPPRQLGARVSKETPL

A further assay concerns the target T3, MST2(h) (human) (UniProt Q13188).
T3 sequence (looked up): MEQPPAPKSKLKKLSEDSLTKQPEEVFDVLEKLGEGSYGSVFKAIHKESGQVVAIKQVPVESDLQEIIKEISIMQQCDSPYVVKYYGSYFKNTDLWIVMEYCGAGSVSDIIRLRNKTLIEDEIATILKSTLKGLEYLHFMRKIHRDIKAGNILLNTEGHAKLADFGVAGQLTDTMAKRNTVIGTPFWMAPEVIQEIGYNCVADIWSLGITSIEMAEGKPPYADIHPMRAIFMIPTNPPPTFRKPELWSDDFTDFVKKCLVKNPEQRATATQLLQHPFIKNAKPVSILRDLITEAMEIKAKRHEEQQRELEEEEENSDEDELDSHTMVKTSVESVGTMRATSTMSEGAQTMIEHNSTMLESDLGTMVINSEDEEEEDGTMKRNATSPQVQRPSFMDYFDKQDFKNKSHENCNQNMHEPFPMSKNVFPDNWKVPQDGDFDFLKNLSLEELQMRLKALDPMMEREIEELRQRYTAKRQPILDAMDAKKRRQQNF

A further assay concerns the target T4, eEF-2K(h) (human) (UniProt O00418).
T4 sequence (looked up): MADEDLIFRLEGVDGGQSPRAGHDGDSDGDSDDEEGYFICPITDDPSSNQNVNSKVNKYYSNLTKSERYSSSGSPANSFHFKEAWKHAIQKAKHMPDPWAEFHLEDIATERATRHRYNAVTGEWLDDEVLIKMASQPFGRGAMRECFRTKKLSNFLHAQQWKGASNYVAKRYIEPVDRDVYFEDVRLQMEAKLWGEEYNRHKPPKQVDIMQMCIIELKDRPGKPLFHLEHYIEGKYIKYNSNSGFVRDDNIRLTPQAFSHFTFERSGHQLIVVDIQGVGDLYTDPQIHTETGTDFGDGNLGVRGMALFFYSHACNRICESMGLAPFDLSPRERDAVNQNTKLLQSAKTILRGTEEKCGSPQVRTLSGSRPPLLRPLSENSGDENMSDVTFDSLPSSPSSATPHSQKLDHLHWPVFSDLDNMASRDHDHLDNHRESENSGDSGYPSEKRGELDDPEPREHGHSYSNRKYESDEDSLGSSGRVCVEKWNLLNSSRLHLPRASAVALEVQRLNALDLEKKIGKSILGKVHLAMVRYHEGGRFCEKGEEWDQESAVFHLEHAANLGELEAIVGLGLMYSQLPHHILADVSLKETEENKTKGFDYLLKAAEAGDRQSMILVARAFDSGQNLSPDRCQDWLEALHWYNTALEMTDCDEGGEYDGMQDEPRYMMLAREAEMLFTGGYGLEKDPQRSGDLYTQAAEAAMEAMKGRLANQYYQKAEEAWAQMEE

PKCβI(h) (human), sequence (P05771 whole entry): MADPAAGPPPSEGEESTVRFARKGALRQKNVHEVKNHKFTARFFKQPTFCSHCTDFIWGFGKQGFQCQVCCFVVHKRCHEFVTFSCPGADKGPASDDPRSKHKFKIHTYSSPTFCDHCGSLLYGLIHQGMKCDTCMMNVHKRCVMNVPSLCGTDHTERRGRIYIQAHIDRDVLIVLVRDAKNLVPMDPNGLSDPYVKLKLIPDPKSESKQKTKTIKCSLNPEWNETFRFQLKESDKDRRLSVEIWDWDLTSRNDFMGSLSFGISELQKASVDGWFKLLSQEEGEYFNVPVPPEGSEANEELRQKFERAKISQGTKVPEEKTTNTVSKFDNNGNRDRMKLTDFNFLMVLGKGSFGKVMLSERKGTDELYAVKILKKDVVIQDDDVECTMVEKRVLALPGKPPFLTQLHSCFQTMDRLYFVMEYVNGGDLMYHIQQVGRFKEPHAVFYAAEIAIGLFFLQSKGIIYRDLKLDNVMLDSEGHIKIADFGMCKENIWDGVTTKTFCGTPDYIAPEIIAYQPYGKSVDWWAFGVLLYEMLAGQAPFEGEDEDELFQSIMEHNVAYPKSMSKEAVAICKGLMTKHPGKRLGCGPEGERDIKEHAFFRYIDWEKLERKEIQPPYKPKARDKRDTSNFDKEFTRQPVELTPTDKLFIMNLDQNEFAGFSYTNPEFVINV
mTOR(h) (human), sequence (P42345 1362-2549 limits assumed): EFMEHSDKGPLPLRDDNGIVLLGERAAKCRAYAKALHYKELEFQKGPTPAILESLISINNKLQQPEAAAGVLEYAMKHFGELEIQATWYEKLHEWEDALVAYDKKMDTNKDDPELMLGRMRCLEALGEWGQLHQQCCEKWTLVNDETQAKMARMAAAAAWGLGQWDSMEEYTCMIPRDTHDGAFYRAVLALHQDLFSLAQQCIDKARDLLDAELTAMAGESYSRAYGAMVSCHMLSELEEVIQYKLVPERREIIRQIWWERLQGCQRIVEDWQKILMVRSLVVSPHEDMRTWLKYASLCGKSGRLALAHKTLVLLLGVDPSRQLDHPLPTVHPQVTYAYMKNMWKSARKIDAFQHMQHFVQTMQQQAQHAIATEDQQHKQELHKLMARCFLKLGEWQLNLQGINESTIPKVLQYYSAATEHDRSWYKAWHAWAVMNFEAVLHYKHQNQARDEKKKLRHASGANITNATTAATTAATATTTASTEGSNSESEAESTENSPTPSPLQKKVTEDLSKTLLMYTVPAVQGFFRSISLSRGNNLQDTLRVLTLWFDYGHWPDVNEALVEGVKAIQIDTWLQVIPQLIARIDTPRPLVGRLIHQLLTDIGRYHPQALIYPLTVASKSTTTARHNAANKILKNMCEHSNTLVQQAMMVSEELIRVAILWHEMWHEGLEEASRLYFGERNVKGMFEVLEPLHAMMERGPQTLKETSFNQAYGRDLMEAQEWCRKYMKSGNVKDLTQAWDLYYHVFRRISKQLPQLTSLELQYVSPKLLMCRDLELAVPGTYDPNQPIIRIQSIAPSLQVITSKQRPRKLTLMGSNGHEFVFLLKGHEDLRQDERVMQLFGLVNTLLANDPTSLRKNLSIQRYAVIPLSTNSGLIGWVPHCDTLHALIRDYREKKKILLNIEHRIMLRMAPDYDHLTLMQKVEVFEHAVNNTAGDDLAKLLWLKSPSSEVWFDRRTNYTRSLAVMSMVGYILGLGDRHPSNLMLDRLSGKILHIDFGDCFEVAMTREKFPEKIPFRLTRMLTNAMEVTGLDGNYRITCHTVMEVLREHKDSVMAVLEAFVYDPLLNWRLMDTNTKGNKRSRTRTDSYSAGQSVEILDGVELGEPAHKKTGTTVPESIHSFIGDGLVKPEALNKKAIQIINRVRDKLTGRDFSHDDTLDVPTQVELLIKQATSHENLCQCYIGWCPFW
Rsk1(h) (human), sequence (Q15418 whole entry): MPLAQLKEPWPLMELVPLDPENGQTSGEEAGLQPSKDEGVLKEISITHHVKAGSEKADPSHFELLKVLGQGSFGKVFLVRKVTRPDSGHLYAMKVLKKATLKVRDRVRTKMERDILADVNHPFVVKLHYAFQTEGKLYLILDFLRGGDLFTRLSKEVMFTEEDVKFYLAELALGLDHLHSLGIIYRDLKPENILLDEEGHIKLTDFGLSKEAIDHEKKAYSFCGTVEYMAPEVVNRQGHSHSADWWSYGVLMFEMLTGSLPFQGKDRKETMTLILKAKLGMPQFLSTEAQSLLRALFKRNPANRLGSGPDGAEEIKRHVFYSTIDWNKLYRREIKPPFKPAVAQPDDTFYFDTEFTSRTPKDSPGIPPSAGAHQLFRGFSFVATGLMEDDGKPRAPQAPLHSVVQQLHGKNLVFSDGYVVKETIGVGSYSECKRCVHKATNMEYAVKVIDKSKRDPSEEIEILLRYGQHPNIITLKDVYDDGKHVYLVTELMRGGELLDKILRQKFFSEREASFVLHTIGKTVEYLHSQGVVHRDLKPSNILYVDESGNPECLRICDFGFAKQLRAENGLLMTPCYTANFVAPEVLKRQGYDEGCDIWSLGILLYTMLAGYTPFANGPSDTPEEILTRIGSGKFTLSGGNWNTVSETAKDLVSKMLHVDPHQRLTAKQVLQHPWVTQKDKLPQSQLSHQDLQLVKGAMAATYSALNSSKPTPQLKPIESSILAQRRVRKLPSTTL
IRR(h) (human), sequence (P14616 960-1297 limits assumed): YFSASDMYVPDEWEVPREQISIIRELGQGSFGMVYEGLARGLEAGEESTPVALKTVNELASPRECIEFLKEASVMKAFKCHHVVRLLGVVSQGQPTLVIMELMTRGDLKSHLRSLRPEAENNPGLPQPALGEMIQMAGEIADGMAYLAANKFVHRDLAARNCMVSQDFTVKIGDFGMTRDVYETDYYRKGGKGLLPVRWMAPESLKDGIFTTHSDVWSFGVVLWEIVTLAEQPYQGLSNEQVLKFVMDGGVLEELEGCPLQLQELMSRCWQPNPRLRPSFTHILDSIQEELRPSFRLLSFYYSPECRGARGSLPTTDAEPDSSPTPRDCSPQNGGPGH
Abl(M351T)(h) (human), sequence (P00519 27-1130 M351T limits assumed): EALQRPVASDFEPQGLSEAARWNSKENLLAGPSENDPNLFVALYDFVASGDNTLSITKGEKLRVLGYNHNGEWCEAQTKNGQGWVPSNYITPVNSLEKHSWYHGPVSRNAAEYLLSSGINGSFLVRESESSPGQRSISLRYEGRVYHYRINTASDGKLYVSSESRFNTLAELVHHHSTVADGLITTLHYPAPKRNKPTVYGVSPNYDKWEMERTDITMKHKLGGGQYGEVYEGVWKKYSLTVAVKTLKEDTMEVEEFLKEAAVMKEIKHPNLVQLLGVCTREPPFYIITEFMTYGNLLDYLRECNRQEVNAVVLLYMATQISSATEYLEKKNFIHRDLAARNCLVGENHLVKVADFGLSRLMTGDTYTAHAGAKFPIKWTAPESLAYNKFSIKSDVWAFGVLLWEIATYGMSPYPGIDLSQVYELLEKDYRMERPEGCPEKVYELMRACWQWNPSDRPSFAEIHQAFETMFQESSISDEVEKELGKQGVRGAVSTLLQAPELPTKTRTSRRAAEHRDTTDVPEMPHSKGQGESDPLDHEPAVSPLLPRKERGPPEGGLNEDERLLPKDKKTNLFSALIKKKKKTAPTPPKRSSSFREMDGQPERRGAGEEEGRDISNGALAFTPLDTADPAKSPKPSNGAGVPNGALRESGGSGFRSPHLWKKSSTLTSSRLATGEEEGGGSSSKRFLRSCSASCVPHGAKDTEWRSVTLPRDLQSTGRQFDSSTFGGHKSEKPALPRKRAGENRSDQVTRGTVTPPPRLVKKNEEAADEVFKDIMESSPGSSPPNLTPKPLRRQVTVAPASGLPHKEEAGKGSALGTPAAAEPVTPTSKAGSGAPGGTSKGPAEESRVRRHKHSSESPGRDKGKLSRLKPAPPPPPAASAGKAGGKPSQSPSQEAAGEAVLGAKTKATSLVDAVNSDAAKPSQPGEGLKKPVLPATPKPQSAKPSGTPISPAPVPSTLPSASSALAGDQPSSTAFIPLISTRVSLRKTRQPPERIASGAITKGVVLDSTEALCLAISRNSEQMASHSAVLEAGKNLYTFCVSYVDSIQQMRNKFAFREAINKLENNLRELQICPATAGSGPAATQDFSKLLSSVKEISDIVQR
MINK(h) (human), sequence (Q8N4C8 1-320 limits assumed): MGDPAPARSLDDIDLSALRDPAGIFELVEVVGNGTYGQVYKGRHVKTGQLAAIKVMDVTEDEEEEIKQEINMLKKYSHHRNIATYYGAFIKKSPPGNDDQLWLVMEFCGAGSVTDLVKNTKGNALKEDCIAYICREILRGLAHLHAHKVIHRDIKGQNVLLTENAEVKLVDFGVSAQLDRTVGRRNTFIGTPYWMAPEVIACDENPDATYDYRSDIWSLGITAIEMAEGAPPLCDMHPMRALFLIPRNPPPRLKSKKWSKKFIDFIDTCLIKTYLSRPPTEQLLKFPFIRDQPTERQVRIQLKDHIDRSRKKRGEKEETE
DYRK2(h) (human), sequence (Q92630 whole entry): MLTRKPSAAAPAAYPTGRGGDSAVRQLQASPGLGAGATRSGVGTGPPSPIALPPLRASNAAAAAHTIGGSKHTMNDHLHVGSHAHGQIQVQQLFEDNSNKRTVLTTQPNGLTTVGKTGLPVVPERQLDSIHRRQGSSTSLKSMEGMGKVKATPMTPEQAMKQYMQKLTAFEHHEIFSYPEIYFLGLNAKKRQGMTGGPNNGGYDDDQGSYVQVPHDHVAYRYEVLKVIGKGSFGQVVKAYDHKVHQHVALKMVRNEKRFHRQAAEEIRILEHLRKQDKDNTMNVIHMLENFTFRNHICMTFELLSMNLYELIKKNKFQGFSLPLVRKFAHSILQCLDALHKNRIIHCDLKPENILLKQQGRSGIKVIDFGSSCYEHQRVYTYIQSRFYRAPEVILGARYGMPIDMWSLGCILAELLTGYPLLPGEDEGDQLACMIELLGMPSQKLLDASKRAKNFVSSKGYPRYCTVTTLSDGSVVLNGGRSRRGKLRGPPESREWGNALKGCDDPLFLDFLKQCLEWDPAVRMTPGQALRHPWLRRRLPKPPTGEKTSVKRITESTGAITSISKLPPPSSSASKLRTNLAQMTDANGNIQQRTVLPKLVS

MMI-0500 (peptide): the % activity, 100 µM with PKGδ(h) (human) was determined as 61%; in the assay with MuSK(h) (human) it was 27%; with MLCK(h) (human), 0%; in the assay with SRPK1(h) (human), 80%; with EGFR(L858R)(h) (human), 26%; with NEK7(h) (human), 89%. The % activity, 100 µM with MINK(h) (human) is 5%; with CSK(h) (human), 2%; with SGK2(h) (human) it was -1%; in the assay with SAPK3(h) (human), 24%; in the assay with MRCKβ(h) (human), -10%; with Rsk1(h) (human), 34%. In addition, the % activity, 100 µM in the assay with PKCβI(h) (human) was 1%; with Abl(M351T)(h) (human), 61%; in the assay with IRR(h) (human) it was 10%; with CDK5/p35(h) (human) it was 59%; in the assay with MST2(h) (human) it was 2%; in the assay with PTK5(h) (human), 96%. For the same substance, the % activity, 100 µM turned out to be 19% with c-RAF(h) (human); 43% with eEF-2K(h) (human); 87% with CDK2/cyclinA(h) (human); 127% with DYRK2(h) (human); 135% with mTOR(h) (human); 78% in the assay with Hck(h) (human).

Values taken from patent US20140072613A1, “Compositions and Methods for Treating Cutaneous Scarring” (priority 2012, published 2014).
